The source of these data is article PMC2673435.

Some targets named below: RPA•2(WF) (Saccharomyces cerevisiae, UniProt P22336;P26754;P26755 1-621;1-273;1-122, W101A;F143A); RPA•2(MM2) (Saccharomyces cerevisiae, UniProt P22336;P26754;P26755 1-621;1-273;1-122, D80A;T82A;E103A;D104A;D158A;E162A); RPA•2(DT) (Saccharomyces cerevisiae, UniProt P22336;P26754;P26755 1-621;1-273;1-122, D80A;T82A); RPA•2(MM1) (Saccharomyces cerevisiae, UniProt P22336;P26754;P26755 1-621;1-273;1-122, D80A;T82A;I96L;E97A;R99A;K100A;K146A;K147A); RPA•2(ERK) (Saccharomyces cerevisiae, UniProt P22336;P26754;P26755 1-621;1-273;1-122, I96L;E97A;R99A;K100A).

Holding throughout (experiment): fluorescence polarization

Sequence of RPA•2(MM2) (P22336 whole entry, chain 1 of 3): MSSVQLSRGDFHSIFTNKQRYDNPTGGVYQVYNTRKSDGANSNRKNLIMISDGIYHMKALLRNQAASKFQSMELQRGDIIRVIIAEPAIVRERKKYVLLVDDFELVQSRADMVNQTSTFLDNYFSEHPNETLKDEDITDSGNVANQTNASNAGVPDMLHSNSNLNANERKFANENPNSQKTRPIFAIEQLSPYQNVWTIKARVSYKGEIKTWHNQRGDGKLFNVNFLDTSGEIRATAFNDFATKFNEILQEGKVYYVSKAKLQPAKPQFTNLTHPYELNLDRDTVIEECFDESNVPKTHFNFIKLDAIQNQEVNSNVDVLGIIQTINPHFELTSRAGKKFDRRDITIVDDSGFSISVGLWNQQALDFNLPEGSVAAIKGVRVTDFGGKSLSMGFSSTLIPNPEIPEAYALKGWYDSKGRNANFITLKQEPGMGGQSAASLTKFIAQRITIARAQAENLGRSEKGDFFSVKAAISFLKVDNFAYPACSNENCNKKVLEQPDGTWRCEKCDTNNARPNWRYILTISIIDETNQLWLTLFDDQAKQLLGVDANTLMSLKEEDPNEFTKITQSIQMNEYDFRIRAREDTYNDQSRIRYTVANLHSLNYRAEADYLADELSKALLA
Sequence of RPA•2(MM2) (P26754 whole entry D80A/T82A/E103A/D104A/D158A/E162A, chain 2 of 3): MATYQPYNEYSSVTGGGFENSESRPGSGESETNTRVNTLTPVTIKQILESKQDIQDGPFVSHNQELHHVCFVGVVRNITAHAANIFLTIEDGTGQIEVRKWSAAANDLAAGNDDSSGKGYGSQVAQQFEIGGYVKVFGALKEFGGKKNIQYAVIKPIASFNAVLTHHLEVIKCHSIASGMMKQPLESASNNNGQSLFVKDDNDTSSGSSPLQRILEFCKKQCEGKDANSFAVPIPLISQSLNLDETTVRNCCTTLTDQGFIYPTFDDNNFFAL
Sequence of RPA•2(MM2) (P26755 whole entry, chain 3 of 3): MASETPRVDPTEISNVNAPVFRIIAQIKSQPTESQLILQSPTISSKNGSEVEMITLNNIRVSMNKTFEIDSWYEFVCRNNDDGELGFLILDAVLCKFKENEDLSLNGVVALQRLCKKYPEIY
Sequence of RPA•2(MM1) (P22336 whole entry, chain 1 of 3): as the sequence (P22336 whole entry, chain 1 of 3) above
Sequence of RPA•2(MM1) (P26754 whole entry D80A/T82A/I96L/E97A/R99A/K100A/K146A/K147A, chain 2 of 3): as the sequence (P26754 whole entry D80A/T82A/E103A/D104A/D158A/E162A, chain 2 of 3) above, with I96L, E97A, R99A, K100A, A103E, A104D, K146A, K147A, A158D, A162E counted along it
Sequence of RPA•2(MM1) (P26755 whole entry, chain 3 of 3): as the sequence (P26755 whole entry, chain 3 of 3) above
Sequence of RPA•2(WF) (P22336 whole entry, chain 1 of 3): as the sequence (P22336 whole entry, chain 1 of 3) above
Sequence of RPA•2(WF) (P26754 whole entry W101A/F143A, chain 2 of 3): as the sequence (P26754 whole entry D80A/T82A/E103A/D104A/D158A/E162A, chain 2 of 3) above, with A80D, A82T, W101A, A103E, A104D, F143A, A158D, A162E counted along it
Sequence of RPA•2(WF) (P26755 whole entry, chain 3 of 3): as the sequence (P26755 whole entry, chain 3 of 3) above
Sequence of RPA•2(ERK) (P22336 whole entry, chain 1 of 3): as the sequence (P22336 whole entry, chain 1 of 3) above
Sequence of RPA•2(ERK) (P26754 whole entry I96L/E97A/R99A/K100A, chain 2 of 3): as the sequence (P26754 whole entry D80A/T82A/E103A/D104A/D158A/E162A, chain 2 of 3) above, with A80D, A82T, I96L, E97A, R99A, K100A, A103E, A104D, A158D, A162E counted along it
Sequence of RPA•2(ERK) (P26755 whole entry, chain 3 of 3): as the sequence (P26755 whole entry, chain 3 of 3) above
Sequence of RPA•2(DT) (P22336 whole entry, chain 1 of 3): as the sequence (P22336 whole entry, chain 1 of 3) above
Sequence of RPA•2(DT) (P26754 whole entry D80A/T82A, chain 2 of 3): as the sequence (P26754 whole entry D80A/T82A/E103A/D104A/D158A/E162A, chain 2 of 3) above, with A103E, A104D, A158D, A162E counted along it
Sequence of RPA•2(DT) (P26755 whole entry, chain 3 of 3): as the sequence (P26755 whole entry, chain 3 of 3) above

As to TTTTTTTTTTTTTTTTTTTTTTTTTTTTTT (ssDNA) [dT30], the Ka in the data set with RPA•2(WF) is 3.85e+07 M⁻¹. Moreover, the binding result with RPA•2(MM2), with RPA•2(DT), in the data set with RPA•2(MM1) and with RPA•2(ERK) was “binds” each time.
